According to article doi:10.1101/2025.10.08.681078 (bioRxiv, 2025):

T1: MLC1-derived peptide (antigen peptide of the cryo-EM complex) (Mus musculus)
T1 chain: YDRMPTLERGRQDA


What was measured:
endogenous mouse MLC1 = endogenous mouse MLC1 (Mus musculus (Mouse)., UniProt Q8VHK5); test: co-IP
Flag::hMLC1::GFP = Flag::hMLC1::GFP (Homo sapiens (Human)., UniProt Q15049); test: immunostaining of cells or tissue
[1] = target: mouse MLC1 fused to C-terminal GFP (Mus musculus (Mouse)., UniProt Q8VHK5); test: western blot
mouse MLC1 fused to C-terminal GFP, sequence (Q8VHK5 whole entry, the tested form may be a part): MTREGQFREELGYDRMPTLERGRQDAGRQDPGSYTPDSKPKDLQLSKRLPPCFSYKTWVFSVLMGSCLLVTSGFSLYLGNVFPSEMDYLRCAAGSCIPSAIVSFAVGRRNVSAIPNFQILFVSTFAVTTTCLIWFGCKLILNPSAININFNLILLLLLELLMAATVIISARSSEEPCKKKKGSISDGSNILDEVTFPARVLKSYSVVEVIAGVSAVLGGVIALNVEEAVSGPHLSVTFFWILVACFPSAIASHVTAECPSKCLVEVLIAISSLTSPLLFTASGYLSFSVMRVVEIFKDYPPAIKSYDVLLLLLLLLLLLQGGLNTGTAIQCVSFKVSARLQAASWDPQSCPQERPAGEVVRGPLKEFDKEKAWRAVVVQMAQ

[2] = target: chicken MLC1 fused to C-terminal GFP (Gallus gallus, UniProt A0A1D5PIT5); test: western blot
Flag-tagged mouse MLC1 = Flag-tagged mouse MLC1 (mouse, UniProt Q8VHK5); test: western blot
Flag-tagged mouse MLC1, sequence (Q8VHK5 whole entry, the tested form may be a part): as above

[3] = target: human MLC1 fused to C-terminal GFP (Homo sapiens (Human)., UniProt Q15049); test: western blot
human MLC1 fused to C-terminal GFP, sequence (Q15049 whole entry, the tested form may be a part): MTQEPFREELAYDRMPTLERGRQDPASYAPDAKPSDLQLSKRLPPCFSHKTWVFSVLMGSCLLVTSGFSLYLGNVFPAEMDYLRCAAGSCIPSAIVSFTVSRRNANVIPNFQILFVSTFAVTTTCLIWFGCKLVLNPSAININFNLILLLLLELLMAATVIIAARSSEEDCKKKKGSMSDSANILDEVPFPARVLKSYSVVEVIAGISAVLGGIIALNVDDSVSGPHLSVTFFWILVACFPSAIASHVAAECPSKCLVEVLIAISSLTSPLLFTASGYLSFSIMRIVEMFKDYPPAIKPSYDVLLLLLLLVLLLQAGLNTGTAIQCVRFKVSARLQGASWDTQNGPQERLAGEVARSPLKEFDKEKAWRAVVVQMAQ

Flag-tagged human MLC1 = Flag-tagged human MLC1 (human, UniProt Q15049); test: western blot
Flag-tagged human MLC1, sequence (Q15049 whole entry): as the sequence (Q15049 whole entry, the tested form may be a part) above

endogenous human MLC1 = endogenous human MLC1 (Homo sapiens (Human)., UniProt Q15049); test: immunostaining of cells or tissue
endogenous human MLC1, sequence (Q15049 whole entry): as the sequence (Q15049 whole entry, the tested form may be a part) above

[4] = target: T1, MLC1-derived peptide (antigen peptide …); test: cryo-EM structure

Flag::hMLC1::GFP, sequence (Q15049 whole entry, the tested form may be a part): as above
endogenous mouse MLC1, sequence (Q8VHK5 whole entry): as the sequence (Q8VHK5 whole entry, the tested form may be a part) above

| binding result (endogenous mouse MLC1) | binding result (Flag::hMLC1::GFP) | binding result [1] | binding result [2] | binding result (Flag-tagged mouse MLC1) | binding result [3] | binding result (Flag-tagged human MLC1) | binding result (endogenous human MLC1) | binding result [4] | Binder |
| --- | --- | --- | --- | --- | --- | --- | --- | --- | --- |
| binds | binds | binds | binds | binds | binds | binds | binds |  | monoclonal antibody 37E5 (anti-MLC1), whole IgG (antibody, V domains shown) VH: QIQLVQSGPDLKKPGETVKISCKASGYTFTNYGMSWVKQAPGKVLKWMGWINTYTGEPTYADDFKGRFAFSLETSANTAYLQINNLKNEDTATYFCAREGATSGFPYWGQGTLVTVSA VL: DIVMSQSPSSLAVSAGEKVTMSCRSSQSLLNSRTRKNYLAWYQQKPGQSPKLLIYWASTRESGVPDRFTGSGSGTDFTLTISSVQAEDLAVYYCKQSYDLPYTFGGGTKLEIK |
|  |  |  |  |  |  |  |  | binds | 37E5 Fab fragment (Fab, V domains shown) VH: QIQLVQSGPDLKKPGETVKISCKASGYTFTNYGMSWVKQAPGKVLKWMGWINTYTGEPTYADDFKGRFAFSLETSANTAYLQINNLKNEDTATYFCAREGATSGFPYWGQGTLVTVSA VL: DIVMSQSPSSLAVSAGEKVTMSCRSSQSLLNSRTRKNYLAWYQQKPGQSPKLLIYWASTRESGVPDRFTGSGSGTDFTLTISSVQAEDLAVYYCKQSYDLPYTFGGGTKLEIK |
